# From patent US20030138946A1
# Target: T1, soluble H-2 K^b (K^bsol): heterodimer of truncated K^b heavy chain and murine β-2 microglobulin, purified from Drosophila cells (murine), P01901
# T1 chain 1: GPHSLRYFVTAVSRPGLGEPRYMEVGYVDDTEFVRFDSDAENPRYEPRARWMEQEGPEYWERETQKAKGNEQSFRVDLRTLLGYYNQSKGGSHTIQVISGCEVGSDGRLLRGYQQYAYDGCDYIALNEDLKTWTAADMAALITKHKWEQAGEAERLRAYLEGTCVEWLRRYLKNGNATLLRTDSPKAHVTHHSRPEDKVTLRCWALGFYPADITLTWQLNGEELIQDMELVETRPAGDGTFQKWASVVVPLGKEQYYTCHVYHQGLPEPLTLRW
# T1 chain 2: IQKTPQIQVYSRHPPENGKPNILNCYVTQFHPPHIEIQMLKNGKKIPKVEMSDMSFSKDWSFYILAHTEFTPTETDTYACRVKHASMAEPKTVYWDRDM
row,Binder,Kd [nM]
1,SIINFEKL (modifications not checked) [OVA-8 (ovalbumin 257-264)],4.1
2,SIINFEKLT (modifications not checked) [OVA-9C],11
3,SIINFEKLTE (modifications not checked) [OVA-10C],14
4,LESIINFEKL (modifications not checked) [OVA-10N],280
